Assay results published in the domain aggregation screens of Martell et al. (2025).

Assay: soluble fraction after stress (log2 fold change); higher = more stays soluble; pooled small domains, quantitative proteomics
Conditions: stress: 50 degC
How it was run: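 After stress at 50°C, the amount of each protein still soluble was measured. This was done on pooled custom libraries of small protein domains, using high-throughput quantitative proteomics. The figure given is a base-two log fold change and stands for aggregation propensity, with higher values meaning more protein stays in solution.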

| Sequence | soluble fraction (log2) |
| --- | --- |
| HMNDLVTWDRYKIELGDTLSEIAQKLVTRVDILKTVNQIQGTRIIAGNSLMVPRTTDTNVLTYL | -0.174 |
| HMEHTPYLTEREADVVRLLVSGLDTAQIAQRLGIKTATVTAHKKHIFLKIGVRNTTQLVAWALIR | -2.34 |
| HMNKADFLRKLDRELSVLDQEERKEILSFYEERFYTGTNYENKTELDIINELENPEIIAKNVLEEYGV | -0.154 |
| HMEPTAEQLKAIRQFASVNGRSWKSELRYLWETGAYHRAALGGADPGYLQQVRNQFGPGWLRAFKISK | -0.852 |
| HMDDSPTARALRTLDLIHNRPGITAAELADRLGVTERAVRRYVLTLRDAGVPVLGTPGRYGGYQVGK | -0.426 |
| HMQSMSADDWSEKARVLMSAGIIVMGQEAKEKILNLKSLVPLIEAASASNVSMIDSRTFDELLMIIP | -1.26 |
| HMQNKRQEQLLALLAERRDYMTSRQLAEILQVSDRTIRSDVEAINRRSSPPPIESNVRQGYRLNPEA | 0.0852 |
| HMPKLSNNHMAVWQAIRSRTAKGEPSTRAVIRDDLKAAGMDTSKHFSRWLTKLIDLGMVVKDGENLSIR | -0.16 |
| HMDAMMQRLERLKELASSADGSKDYLILGPLRRDLAKLMALEDPKLRQGAEELDRKILAILS | -0.208 |
| HMDDAFLNKEMLKQALENLNEREKKLIYLRFYEGLTQKEIADRLSLSQMHVSRLLNESLNKLRRKI | -0.245 |
| HMVEVVDAEKLEERLSKVFSAAVLLEIYNENPAHGKEYAYLFTARKNAVEEMIENGQMKRETWEAK | -0.963 |
| HMQNNTIAFSKFLQEVDNGRVVQVEIQGNNINGILSDGSKFNTYSPNYPALVEKLSEKNVNIVASPV | 0.0149 |
| HMHGESIPIPNILHKRYADAEQIVNNLRLEIEVTDTGYVRSLPPGAILEQTPGPGERVKSGHIIYVTINAA | -0.291 |
| HMHGETLAAKRREEIKVRIQNIYDQSEQIFGYRKITATLRSQGVVVSEKLVSQLMRELEISSVS | -3.87 |
| HMLSLDDAAFERYDLTMREREVLLLLLNRLTYEEIAERLFISTNTVKTHVGNVYKKTGVSSRKELVSK | -1.08 |
| HMEVPQVETEKVEAKLKEAEVLLVKVTDSSLKANATETLAGLRNNLTLQTMDNNGIMAEAEKLLALLRES | 0.0393 |
| HMRTDTIINSGGLKINPEEVENEILKSLGDNNFFIDKIKNDKFGEEIILIALKKIKINLLIESLNLI | 0.0394 |
| HMIRVVSIEDQPWFVAADVLKSLGMPTDKGVGKYLLALGSDERMLTTHGQIGGKGMAVTTIISESGLY | -0.46 |
| HMNGAITLRVRPSDEGKRLDVFVVSQLTGYTRSFVAGLIGDRHFLVNGQPKKPGYRIKSSDTISGVIPAPA | -1.21 |
| HMPIMDSDDKYEALGIPQEWIAVVKKAGYQTVEALKAVENPNKLHQELSVMNKKEKLGLAGLTPEMVKAWL | 0.342 |
| HMITTEEVLNRIRKKVDHPATIRELQKALSIADDDRHRFRRRIRTLVASGALVRIRGNRYGLPSK | -0.275 |
| HMSGENAVLTEGTMVTVRRGGETITATARKETVKQFLSRMDIIPGSREMVGIELMENSVMLTISD | -0.227 |
| HMKGALQIAIEEGFNWNLDKKYWNIVQSTVIAKRLGLKTTSGLKEAIEGMGGEYKRTKKARGYLVPTFKD | -2.31 |
| HMGLRERLLNYIAYKGIDKATLERKSGLSNDAVNKMGDNTRVSTLDKISNAFPDINIAWLKTGVGEMILG | -0.113 |
| HMGRAAEETETFRTQGELDARIKELQGQMRDAAANLEFERAAGLRDTLKRLRTRGLGLSASP | 0.0346 |
| HMTTVDYDALRAAILQQVVSEDTTPALTTENTEIKYKFKFGLDTWVDLDGGKIAPAVSAKSYEIQISFKG | 0.132 |
| HMVAMLDASYRGVMQTISTLLAQGNTERAYDEAVNARGQMSKQQWNNLANLIWERTGQKIDSGVSYK | 0.139 |
| HMPMINLYQRLNLPPTASRAEIEAALAQYRSELSTAEIRGVQEWLLVNEVRHRYDAKLRQEQPSFFI | -0.471 |

| Sequence | soluble fraction (log2) |
| --- | --- |
| HMSFESMGLTPRQADVLTLLLQGKSNKDIARRLVLSVETVKDHVQAVLRALGVSSRTQAVLAVGQMTQQ | -0.292 |
| HMQQELEEMESGNLVRTAIDSLPINQRTAFILSAYEELPIKEIASIMNRSEGAVEQLLQRAKMNLKKKIK | 0.347 |
| HMKNYALHEPMMDRIAKVNALYDAGHTIKYMTARGAVSMVDYYDLTKSQLDSWGAKYHELSVGK | -0.0372 |
| HMERVNILEKATKDIPNVEVKAFEGLSVNFARENHAQVIVRGLRAVTDFEYELQMAQTNRVLAPDVDTVF | 0.124 |
| HMSIASASVKEKIRDIVSSEPPQKPFSDAKIAEILAEDGIAIARRTVAKYREEIGIPTKSLRKR | 0.0195 |
| HMSKSIEEIYDEAIRSLANEEYDSAKKLFSYLIDNFSDPEKLPLSLFWLGEIEFSSSNFDQSKIHYIE | -0.0445 |
| HMRALPAGQADLLKWIDGVTPRSVEELELLSGLEPGRLSELLMELELAGIVRAVAGDSYIKISKS | -0.462 |
| HMTPKVDLTVAEDGSASAVIAGLRVEIDAAGKVTAVAPADGTTDLSSVAPEAVKEAMDNALAAYTASKG | 0.0555 |
| HMRITRREQQVLHLLAMGMTTREIAGHINLTERTVRNRISNLRDKLGAQTASQLLAKAVAQGLIEP | -2.02 |
| HMFNVKAYEKAVKSYITKRKPLGEALDEEIMDELSVKFGIVDDALEDLFKQIQDAGISIVDKDGNPSPLAL | -0.619 |
| HMNGQITPSRAKEIALGHAGVSEGSANFKKIKLDNKNGRPAYEIEFIANNSRYEFEINASNGSIIKFNK | 0.345 |
| HMNISALKGKIGEVYLKIPAHNAGKGKVLISLKGTHHELYAITRSGEDISSGEFVKVIEIEDEILVVEK | -0.58 |
| HMFDLENIRLTLARRLNVAAHLRPKYVAGFTLLLKQNFPEQNAEDLLNRLEHNQWLKVNQREIEYSPRLLM | -1.58 |
| HMGSTYGISRVDNETSRTHGWLVTIQRRGVIYRKHFSDGVFGGKQRSFAAAKEYRDEVIAAHP | -0.672 |
| HMDDMVLEIGPGIGTMTQYLAEAAGKVVAVEIDRNLLPILQETLADYDNVKVIHADVLSLDLEKLVQEE | -0.000883 |
| HMREVDKRYYKINIAGTDRIFTNVYRVGDRYSAYEADKNGKPGKFLYSLSQAEIDRAVISGSFDFK | 0.105 |
| HMAEEPLRIWTDLQGRSIEASFIKFSGNNIVIKMKSGRDYEVARSLFSPGDQKYLSDLKKSTPE | -0.701 |
| HMTDLDDFAARLKTLTDGRASTPRLRDGVMMLSLDVGGLGPDQRDGLIAAIREGGLTVPGVSDVRIVMT | 0.0757 |
| HMGMIRFSKEEQMLMMLYSPGSRLGLIAELESMKLQLNSRERKLRNLAESVLKKLEQITDEEFMQFDF | -1.31 |
| HMPKPMKATKITLQQEPRIRVDFTYDPLKVQQIKTISGARWSKSLKAWHIPYTKEAFNQLKKLFPNVEIEV | -0.166 |
| HMKIMSLSERHQKILELLKVNGIVSVNSLSRQLNVSSVTIRKDLGLLEEKKLLYRSHGGAIQID | -3.08 |
| HMKTDFEIDITVKASSLRVVASPGGDELVGTVTRGDRVTQLATPKDGWILIKMTDGRLGYVPESLLLFP | -0.0577 |
| HMEWNREQLEQIVLQHIRKHGFITRATYTELTGRLKNSALADLKSFAAEGIIKRVGRGNQMHFIVPL | -2.42 |
| HMVVEDDTVLQAVKQAIEENPEAVSDYFEGKSKALNFLVGQVMRITRGKADPAKTNQMVVEELKNR | 0.111 |
| HMKDHLRFEILSFAGDLRNGVVKTRQEFETIFAFYDKYEEIITALKVHNGYVDSEFDFIKEKFKELKSK | -1.92 |
| HMLVSVSNYLGQNVDTVKSDLEALGLVVKLKEQQTDRESENGAVLEQSIEGGSKVSAGTPITLTYGK | 0.187 |
| HMTAKRELILRVFMDSNGKLLSIDDVFMEMRKKRSHRTSKMTVKRAIDLLVDLGLLKEVLFDDDNIKYEYV | -0.0948 |
